According to patent US9499613B2, “Notch1 receptor binding agents and methods of use thereof” (OncoMed Pharmaceuticals, Inc., priority 2008, dated 2016):
“Also recorded” adds a separate entry of the source.

Tests used:
Notch1 [1] = molecular target: T1, Notch1 (Homo sapiens, UniProt P46531); experiment: ELISA of conditioned media from cotransfected HEK 293 cells for Notch1 binding activity; details: candidate humanized chains cotransfected into HEK 293 cells
Method: The functionality of each candidate variant humanized heavy and light chain was tested by cotransfection into mammalian cells. Each of the nine candidate humanized 52M51 heavy chains described above was cotransfected into HEK 293 cells with the murine 52M51 light chain cDNA, and conditioned media was assayed by ELISA for Notch1 binding activity. […] This variant “52M51-H4” (SEQ ID NO:22) contains, in addition to murine CDRs, variation at 3 framework positions within the Vh framework, Kabat positions 20, 48, and 71 in comparison with an example human framework (e.g. IGHV1-24). The 52M51-H4 humanized heavy chain was then cotransfected into HEK293 cells with each of the eight candidate humanized light chains, and conditioned media was again assayed for antigen binding by ELISA. […] Variant 52M51-L3 contains, in addition to murine CDRs, variation at 1 framework position at Kabat position 49 in comparison to an example human framework (e.g., IGLV7-46). Two humanized variant antibodies, 52M51H4L3 and 52M51H4L4, were developed. 52M51H4L3, as encoded by DNA deposited with the ATCC, under the conditions of the Budapest Treaty on Oct. 15, 2008, and assigned designation number PTA-9549.

Notch1 [2] = molecular target: T1, Notch1; experiment: hDLL4-fc-induced Notch reporter luciferase assay in Notch1-Hela cells; format: cell-based; parameters: expressed in transfected cells; host or cells: HeLa (Notch1-Hela); details: plates coated with 200 ng/well hDLL4-fc, 48 hours after transfection
Method: In certain embodiments, the ability of Notch1 receptor antibodies to block ligand-mediated Notch signaling was determined. In certain embodiments, HeLa cells engineered to overexpress Notch1 (Notch1-Hela) cultured in DMEM supplemented with antibiotics and 10% FCS were co-transfected with 1) pGL4 8×CBS firefly luciferase containing a Notch responsive promoter upstream of a firefly luciferase reporter gene to measure Notch signaling levels in response to DLL4 ligand; and 2) a Renilla luciferase reporter (Promega; Madison, Wis.) as an internal control for transfection efficiency. Transfected cells were added to cultures plates coated overnight with 200 ng/well of hDLL4-fc protein, and antibodies to Notch1 were then added to the cell culture medium. Forty-eight hours following transfection, luciferase levels were measured using a dual luciferase assay kit (Promega; Madison, Wis.) with firefly luciferase activity normalized to Renilla luciferase activity. The ability of antibodies to inhibit Notch1 pathway activation was thus determined.

Notch1 [3] = molecular target: T1, Notch1; experiment: Western blot of Notch1 ICD formation after DLL4 stimulation of Notch1-Hela cells; format: cell-based; parameters: expressed in transfected cells; host or cells: HeLa (Notch1-Hela); details: DLL4-fc coated wells, five hours
Method: Cleavage of Notch receptors by furin, ADAM, and gamma-secretase results in formation of the Notch intracellular domain (ICD) that then triggers downstream Notch signaling in the nucleus. In certain embodiments, the ability of Notch1 receptor antibodies to block ligand-mediated receptor activation was determined by Western blot analysis. Notch1-Hela cells were grown in suspension culture in 293-SMII media (Gibco). Cultured cells were transferred to 96-well plates in which select wells had been pre-coated with human DLL4-fc fusion protein ([…]) in DMEM plus 2% FBS and 1 μM MG132 (Calbiochem). Antibodies to generated against a membrane proximal region of the extracellular domain of human Notch1 were added to the cell culture medium, and cells were incubated at 37° C. for five hours. Wells were then aspirated and the cells resuspended in 2×SDS running buffer. Samples were sonicated at room temperature, and then subjected to SDS-PAGE and western blot analysis using an antibody specific for the cleaved Notch1 ICD according to the manufacturer's recommendations (Cell Signaling Technology).

C8 colon tumor cells = experiment: C8 colon tumor xenograft, treatment of established tumors; format: in vivo, NOD/SCID mice; details: C8 colon tumors ~210 mm^3 at start, 10 mg/kg i.p. twice a week
Method: Tumor cells from a patient sample (solid tumor biopsy or pleural effusion) that have been passaged as a xenograft in mice were prepared for repassaging into experimental animals. Tumor tissue was removed, cut up into small pieces, minced completely using sterile blades, and single cell suspensions obtained by enzymatic digestion and mechanical disruption. Dissociated tumor cells were then injected subcutaneously into the mammary fat pads, for breast tumors, or into the flank, for non-breast tumors, of NOD/SCID mice to elicit tumor growth. In certain embodiments, ESA+, CD44+, CD24−/low, Lin− tumorigenic tumor cells are isolated as described in detail above and injected.
In certain embodiments, freshly isolated C8 colon tumor cells (225 cells per animal) were implanted subcutaneously into NOD/SCID mice. Following tumor cell injection, animals were monitored for tumor growth. Tumors were allowed to grow for 48 days until they reached an average size of approximately 210 mm^3 and randomized into two groups (n=10 per group). The animals were treated with either control antibody or antibody that binds to the membrane proximal region of the extracellular domain of human Notch1, 52M51, (10 mg/kg) dosed i.p. twice a week. Tumor size was assessed on days 55, 57, and 62.

T1 sequence (P46531 19-2555): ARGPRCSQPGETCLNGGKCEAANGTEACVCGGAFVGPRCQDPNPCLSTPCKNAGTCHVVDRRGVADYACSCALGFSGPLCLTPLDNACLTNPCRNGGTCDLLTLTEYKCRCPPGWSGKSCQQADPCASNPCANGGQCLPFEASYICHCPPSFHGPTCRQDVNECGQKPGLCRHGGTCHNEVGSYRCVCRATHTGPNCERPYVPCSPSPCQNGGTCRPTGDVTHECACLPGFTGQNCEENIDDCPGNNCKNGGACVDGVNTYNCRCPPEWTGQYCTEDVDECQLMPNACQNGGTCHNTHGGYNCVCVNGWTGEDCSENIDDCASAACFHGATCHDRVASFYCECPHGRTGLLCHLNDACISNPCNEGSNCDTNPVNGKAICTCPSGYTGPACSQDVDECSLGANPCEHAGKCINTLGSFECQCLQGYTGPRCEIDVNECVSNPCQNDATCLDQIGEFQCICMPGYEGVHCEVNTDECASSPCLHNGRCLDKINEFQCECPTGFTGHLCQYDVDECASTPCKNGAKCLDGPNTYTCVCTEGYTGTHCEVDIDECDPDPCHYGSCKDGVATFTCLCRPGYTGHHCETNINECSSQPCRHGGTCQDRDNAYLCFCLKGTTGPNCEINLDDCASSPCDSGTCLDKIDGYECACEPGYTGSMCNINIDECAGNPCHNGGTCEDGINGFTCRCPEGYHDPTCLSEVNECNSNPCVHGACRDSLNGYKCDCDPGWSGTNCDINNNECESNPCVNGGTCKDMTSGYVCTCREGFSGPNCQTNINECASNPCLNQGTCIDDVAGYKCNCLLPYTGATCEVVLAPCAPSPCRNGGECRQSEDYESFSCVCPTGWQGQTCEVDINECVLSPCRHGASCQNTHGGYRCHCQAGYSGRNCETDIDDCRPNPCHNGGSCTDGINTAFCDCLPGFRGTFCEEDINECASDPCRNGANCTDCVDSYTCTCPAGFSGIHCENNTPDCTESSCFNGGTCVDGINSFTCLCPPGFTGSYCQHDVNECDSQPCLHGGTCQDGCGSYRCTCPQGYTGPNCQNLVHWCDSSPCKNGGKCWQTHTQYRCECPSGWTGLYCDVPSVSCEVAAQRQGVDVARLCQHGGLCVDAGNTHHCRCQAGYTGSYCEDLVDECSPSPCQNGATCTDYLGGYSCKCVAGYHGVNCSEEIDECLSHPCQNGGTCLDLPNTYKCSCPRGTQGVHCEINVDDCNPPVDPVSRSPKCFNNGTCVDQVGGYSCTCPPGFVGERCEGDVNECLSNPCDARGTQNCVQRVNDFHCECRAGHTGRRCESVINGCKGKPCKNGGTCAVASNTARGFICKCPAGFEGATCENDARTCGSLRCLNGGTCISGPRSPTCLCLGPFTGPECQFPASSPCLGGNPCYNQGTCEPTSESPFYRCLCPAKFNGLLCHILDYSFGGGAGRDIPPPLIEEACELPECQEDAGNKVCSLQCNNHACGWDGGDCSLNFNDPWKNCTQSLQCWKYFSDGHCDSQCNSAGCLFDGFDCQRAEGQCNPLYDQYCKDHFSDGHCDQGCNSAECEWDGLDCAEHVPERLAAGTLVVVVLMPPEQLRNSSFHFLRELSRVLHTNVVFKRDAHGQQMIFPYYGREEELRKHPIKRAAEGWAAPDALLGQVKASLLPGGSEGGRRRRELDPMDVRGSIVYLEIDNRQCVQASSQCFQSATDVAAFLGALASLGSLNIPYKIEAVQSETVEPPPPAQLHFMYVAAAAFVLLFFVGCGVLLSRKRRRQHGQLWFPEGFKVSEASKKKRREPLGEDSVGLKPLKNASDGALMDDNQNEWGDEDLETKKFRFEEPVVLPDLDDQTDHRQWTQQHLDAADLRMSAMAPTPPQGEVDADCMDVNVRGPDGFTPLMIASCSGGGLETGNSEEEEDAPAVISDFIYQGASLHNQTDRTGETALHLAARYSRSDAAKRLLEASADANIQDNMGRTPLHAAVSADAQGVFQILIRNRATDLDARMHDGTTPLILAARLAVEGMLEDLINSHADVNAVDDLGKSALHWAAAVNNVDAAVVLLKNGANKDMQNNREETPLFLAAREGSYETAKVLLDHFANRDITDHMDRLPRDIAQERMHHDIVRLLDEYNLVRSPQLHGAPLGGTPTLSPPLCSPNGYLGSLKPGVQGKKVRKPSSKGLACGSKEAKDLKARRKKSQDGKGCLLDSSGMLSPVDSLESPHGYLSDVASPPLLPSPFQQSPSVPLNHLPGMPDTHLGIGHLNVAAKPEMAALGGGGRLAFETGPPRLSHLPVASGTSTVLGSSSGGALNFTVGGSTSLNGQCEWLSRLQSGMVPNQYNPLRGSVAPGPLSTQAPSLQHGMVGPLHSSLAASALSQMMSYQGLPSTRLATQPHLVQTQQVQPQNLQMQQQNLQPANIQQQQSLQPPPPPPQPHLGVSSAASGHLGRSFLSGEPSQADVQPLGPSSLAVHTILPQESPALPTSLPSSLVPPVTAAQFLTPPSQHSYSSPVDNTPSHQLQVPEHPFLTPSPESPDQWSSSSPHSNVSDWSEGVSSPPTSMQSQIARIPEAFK

B1: 52M51-H4: humanized 52M51 heavy chain variant (SEQ ID NO:22), tested with the murine 52M51 light chain (antibody)
heavy: QVQLVQSGAEVKKPGASVKISCKVSGYTLRGYWIEWVRQAPGKGLEWIGQILPGTGRTNYNEKFKGRVTMTADTSTDTAYMELSSLRSEDTAVYYCARFDGNYGYYAMDYWGQGTTVTVSSASTKGPSVFPLAPCSRSTSESTAALGCLVKDYFPEPVTVSWNSGALTSGVHTFPAVLQSSGLYSLSSVVTVPSSNFGTQTYTCNVDHKPSNTKVDKTVERKCCVECPPCPAPPVAGPSVFLFPPKPKDTLMISRTPEVTCVVVDVSHEDPEVQFNWYVDGVEVHNAKTKPREEQFNSTFRVVSVLTVVHQDWLNGKEYKCKVSNKGLPAPIEKTISKTKGQPREPQVYTLPPSREEMTKNQVSLTCLVKGFYPSDIAVEWESNGQPENNYKTTPPMLDSDGSFFLYSKLTVDKSRWQQGNVFSCSVMHEALHNHYTQKSLSLSPGK
light: QAVVTQESALTTSPGETVTLTCRSSTGAVTTSNYANWVQEKPDHLFTGLIGGTNNRAPGVPARFSGSLIGDKAALTITGAQTEDEAIYFCALWYSNHWVFGGGTKLTVLGQPKSSPSVTLFPPSSEELETNKATLVCTITDFYPGVVTVDWKVDGTPVTQGMETTQPSKQSNNKYMASSYLTLTARAWERHSSYSCQVTHEGHTVEKSLSRADCS
Notch1 / antigen binding by ELISA (Notch1 [1]): most robust binding

B2: 52M51H4L3: humanized variant of 52M51, heavy chain H4 and light chain L3; DNA deposited as ATCC PTA-9549 (antibody)
heavy: B1 heavy
light: SGVDSQAVVTQEPSLTVSPGGTVTLTCRSSTGAVTTSNYANWFQQKPGQAPRTLIGGTNNRAPGVPARFSGSLLGGKAALTLSGAQPEDEAEYYCALWYSNHWVFGGGTKLTVLGQPKAAPSVTLFPPSSEELQANKATLVCLVSDFYPGAVTVAWKADGSPVKVGVETTKPSKQSNNKYAASSYLSLTPEQWKSHRSYSCRVTHEGSTVEKTVAPAECS
Notch signaling (luciferase activity) (Notch1 [2]): significantly inhibited Notch signaling

B3: 52M51: murine monoclonal antibody to membrane proximal region of human Notch1; hybridoma ATCC PTA-9405; heavy SEQ ID NO:10, light SEQ ID NO:4 (antibody)
heavy: MEWTWVFLFLLSVTAGVHSQVQLQQSGAELMKPGASVKISCKAAGYTMRGYWIEWIKQRPGHGLEWIGQILPGTGRTNYNEKFKGKATFTADTSSNTANMQLSSLTSEDSAVYYCARFDGNYGYYAMDYWGQGSSVTVSSAKTTPPSVYPLAPGSAAQTNSMVTLGCLVKGYFPEPVTVTWNSGSLSSGVHTFPAVLQSDLYTLSSSVTVPSSPRPSETVTCNVAHPASSTKVDKKIVPRDCGCKPCICTVPEVSSVFIFPPKPKDVLTITLTPKVTCVVVDISKDDPEVQFSWFVDDVEVHTAQTQPREEQFNSTFRSVSELPIMHQDWLNGKEFKCRVNSAAFPAPIEKTISKTKGRPKAPQVYTIPPPKEQMAKDKVSLTCMITDFFPEDITVEWQWNGQPAENYKNTQPIMNTNGSYFVYSKLNVQKSNWEAGNTFTCSVLHEGLHNHHTEKSLSHSPGK
light: MAWISLILSLLALSSGAISQAVVTQESALTTSPGETVTLTCRSSTGAVTTSNYANWVQEKPDHLFTGLIGGTNNRAPGVPARFSGSLIGDKAALTITGAQTEDEAIYFCALWYSNHWVFGGGTKLTVLGQPKSSPSVTLFPPSSEELETNKATLVCTITDFYPGVVTVDWKVDGTPVTQGMETTQPSKQSNNKYMASSYLTLTARAWERHSSYSCQVTHEGHTVEKSLSRADCS
modifications: Synthetic heavy chain of antibody 52M51; Synthetic light chain of antibody 52M51
Notch1 ICD formation after ligand stimulation (Notch1 [3]): significantly inhibited the generation of ICD; also recorded: reduce ICD formation to background levels | tumor growth compared to control antibody (C8 colon tumor cells): statistically significant (p=0.0006) inhibition of tumor growth; also recorded: significantly (p=0.0006) inhibited tumor growth
